From patent publication US20040235127

Target: Schizochytrium PUFA PKS Orf A protein (carrying nine ACP domains)
Sequence (chain, as listed by the source): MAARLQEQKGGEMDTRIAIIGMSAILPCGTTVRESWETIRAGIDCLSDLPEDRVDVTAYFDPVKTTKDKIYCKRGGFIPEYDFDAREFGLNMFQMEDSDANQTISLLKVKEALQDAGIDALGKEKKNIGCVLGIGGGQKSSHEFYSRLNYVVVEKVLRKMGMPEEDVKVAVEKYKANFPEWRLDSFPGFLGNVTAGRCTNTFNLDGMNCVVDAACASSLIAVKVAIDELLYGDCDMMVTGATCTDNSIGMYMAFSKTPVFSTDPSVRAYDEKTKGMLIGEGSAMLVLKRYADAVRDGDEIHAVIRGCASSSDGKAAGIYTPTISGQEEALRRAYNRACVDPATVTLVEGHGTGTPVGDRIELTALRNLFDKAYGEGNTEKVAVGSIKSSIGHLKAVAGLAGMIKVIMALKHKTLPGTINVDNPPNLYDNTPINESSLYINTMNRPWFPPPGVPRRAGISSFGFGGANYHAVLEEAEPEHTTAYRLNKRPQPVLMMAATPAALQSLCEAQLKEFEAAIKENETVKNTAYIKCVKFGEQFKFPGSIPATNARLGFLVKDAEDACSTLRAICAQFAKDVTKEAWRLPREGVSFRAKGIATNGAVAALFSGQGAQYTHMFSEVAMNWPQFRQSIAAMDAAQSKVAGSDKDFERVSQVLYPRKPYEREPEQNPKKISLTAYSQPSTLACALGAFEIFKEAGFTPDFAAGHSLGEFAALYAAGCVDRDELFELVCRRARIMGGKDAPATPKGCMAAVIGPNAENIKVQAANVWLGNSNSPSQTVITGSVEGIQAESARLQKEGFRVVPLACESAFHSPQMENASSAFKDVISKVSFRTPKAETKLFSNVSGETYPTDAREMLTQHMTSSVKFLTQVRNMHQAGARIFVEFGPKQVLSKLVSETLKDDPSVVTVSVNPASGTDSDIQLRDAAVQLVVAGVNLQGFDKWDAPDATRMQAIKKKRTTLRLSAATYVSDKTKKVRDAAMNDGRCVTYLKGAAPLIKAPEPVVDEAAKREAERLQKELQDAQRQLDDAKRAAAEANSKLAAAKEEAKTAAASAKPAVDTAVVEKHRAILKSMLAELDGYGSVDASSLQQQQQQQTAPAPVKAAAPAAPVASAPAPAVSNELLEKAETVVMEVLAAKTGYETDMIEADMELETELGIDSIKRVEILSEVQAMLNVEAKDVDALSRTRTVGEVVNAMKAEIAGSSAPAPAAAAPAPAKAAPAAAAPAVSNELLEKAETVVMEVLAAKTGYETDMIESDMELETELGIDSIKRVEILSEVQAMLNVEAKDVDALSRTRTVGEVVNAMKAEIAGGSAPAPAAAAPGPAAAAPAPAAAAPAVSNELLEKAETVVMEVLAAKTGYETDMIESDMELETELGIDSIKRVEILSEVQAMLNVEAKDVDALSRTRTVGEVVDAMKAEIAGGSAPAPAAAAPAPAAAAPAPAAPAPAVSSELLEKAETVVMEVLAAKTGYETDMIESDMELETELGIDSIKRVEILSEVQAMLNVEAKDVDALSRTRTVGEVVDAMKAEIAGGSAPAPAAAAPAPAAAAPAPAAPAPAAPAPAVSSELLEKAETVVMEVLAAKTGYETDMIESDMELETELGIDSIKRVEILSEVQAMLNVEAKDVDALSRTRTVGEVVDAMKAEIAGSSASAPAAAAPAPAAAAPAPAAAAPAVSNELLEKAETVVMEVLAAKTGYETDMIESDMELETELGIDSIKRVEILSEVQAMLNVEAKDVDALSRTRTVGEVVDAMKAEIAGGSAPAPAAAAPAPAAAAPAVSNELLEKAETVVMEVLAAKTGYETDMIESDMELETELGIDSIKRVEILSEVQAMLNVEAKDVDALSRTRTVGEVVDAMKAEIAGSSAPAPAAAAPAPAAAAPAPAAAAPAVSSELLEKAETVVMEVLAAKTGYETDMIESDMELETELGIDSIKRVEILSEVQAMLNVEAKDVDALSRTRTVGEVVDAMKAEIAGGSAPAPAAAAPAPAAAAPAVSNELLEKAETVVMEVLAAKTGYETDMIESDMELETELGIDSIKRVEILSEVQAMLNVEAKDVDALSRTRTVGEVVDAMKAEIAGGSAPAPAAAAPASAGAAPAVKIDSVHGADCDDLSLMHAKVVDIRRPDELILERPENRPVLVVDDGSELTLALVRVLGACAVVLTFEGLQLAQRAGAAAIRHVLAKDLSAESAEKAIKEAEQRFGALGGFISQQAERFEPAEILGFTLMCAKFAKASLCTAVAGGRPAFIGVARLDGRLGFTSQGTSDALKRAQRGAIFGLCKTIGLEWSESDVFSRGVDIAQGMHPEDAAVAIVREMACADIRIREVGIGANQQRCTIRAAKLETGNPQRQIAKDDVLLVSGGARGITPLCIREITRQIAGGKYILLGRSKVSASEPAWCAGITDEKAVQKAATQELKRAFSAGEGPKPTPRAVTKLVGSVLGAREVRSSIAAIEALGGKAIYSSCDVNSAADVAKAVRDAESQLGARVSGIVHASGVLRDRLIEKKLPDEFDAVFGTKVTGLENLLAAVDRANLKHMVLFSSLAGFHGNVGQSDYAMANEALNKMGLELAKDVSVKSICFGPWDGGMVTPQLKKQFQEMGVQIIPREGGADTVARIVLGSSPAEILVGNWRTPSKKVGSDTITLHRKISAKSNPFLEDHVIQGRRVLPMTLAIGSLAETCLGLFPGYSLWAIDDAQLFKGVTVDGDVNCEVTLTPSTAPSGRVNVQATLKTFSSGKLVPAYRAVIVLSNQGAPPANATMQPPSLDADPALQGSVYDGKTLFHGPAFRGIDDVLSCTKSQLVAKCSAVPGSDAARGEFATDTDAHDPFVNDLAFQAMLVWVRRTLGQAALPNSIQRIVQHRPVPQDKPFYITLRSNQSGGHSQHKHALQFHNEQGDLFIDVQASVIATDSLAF

B1: sfp PPTase (phosphopantetheine transferase derived from Bacillus subtilis) (protein)
chain: MKIYGIYMDRPLSQEENERFMSFISPEKREKCRRFYHKEDAHRTLLGDVLVRSVISRQYQLDKSDIRFSTQEYGKPCIPDLPDAHFNISHSGRWVICAFDSQPIGIDIEKTKPISLEIAKRFFSKTEYSDLLAKDKDEQTDYFYHLWSMKESFIKQEGKGLSLPLDSFSVRLHQDGQVSIELPDSHSPCYIKTYEVDPGYKMAVCAAHPDFPEDITMVSYEELL
- DHA production in E. coli co-expressing the PPTase with Orf A, B*, C (FAME analysis by gas-liquid chromatography): Co-expression of the sfp construct in cells expressing the Orf A, B*, C proteins, under certain conditions, resulted in DHA production.
